For 42 molecules, Kd results are on record in patent publication US20220064329A1 (Novo Nordisk, published 2022).

T1: recombinant human activated Factor VII (FVIIa) (human, UniProt P08709 61-212; P08709 213-466, ten glutamate residues of the Gla domain may be gamma-carboxylated)
T1 construct: chains tethered by a disulfide bond; also called Factor VIIa; rFVIIa
T1 sequence 1: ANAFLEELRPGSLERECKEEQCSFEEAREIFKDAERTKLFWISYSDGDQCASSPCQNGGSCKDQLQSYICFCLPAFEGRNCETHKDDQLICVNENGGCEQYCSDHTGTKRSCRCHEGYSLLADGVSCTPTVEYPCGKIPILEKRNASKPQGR
T1 sequence 2: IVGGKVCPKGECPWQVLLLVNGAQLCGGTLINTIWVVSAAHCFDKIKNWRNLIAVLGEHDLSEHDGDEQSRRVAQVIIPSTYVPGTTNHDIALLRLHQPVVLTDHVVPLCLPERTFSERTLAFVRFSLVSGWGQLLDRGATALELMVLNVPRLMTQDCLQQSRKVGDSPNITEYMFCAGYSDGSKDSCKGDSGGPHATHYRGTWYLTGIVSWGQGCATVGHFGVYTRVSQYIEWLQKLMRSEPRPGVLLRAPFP

B1: VH SEQ ID NO 586 / VL SEQ ID NO 310 (antibody, IgG4, V domains shown)
VH: QVQLQESGPGLVKPSDTLSLTCAVSGYSISSDSAWSWIRQPPGKGLEWIGYIQYSGSTNYNPSLKSRVTMSVDTSKNQFSLKLSSVTALDTAVYYCARSVNYYGNSFAVGYWGQGTLVTVSS
VL: EIVLTQSPATLSLSPGERATLSCRASQGISDYLAWYQQKPGQAPRLLIKYASQPATGIPARFSGSGSGTDFTLTISSLEPEDFAVYYCQNGHSFPLTFGQGTKLEIK
notes: humanized 11F2; IgG4 S228P/kappa
B2: VH SEQ ID NO 594 / VL SEQ ID NO 454 (antibody, IgG4, V domains shown)
VH: B1 VH with G45K, Y111P
VL: B1 VL with I29V, A34H, Q42E
notes: as for B1
B3: VH SEQ ID NO 586 / VL SEQ ID NO 462 (antibody, IgG4, V domains shown)
VH: B1 VH
VL: B1 VL with I29V, A34H, Q100A
notes: as for B1
B4: VH SEQ ID NO 594 / VL SEQ ID NO 318 (antibody, IgG4, V domains shown)
VH: B1 VH with G45K, Y111P
VL: B1 VL with A34H, Q42E, A51T
notes: as for B1
B5: VH SEQ ID NO 594 / VL SEQ ID NO 382 (antibody, IgG4, V domains shown)
VH: B1 VH with G45K, Y111P
VL: B1 VL with I29L, A34H, Q42E
notes: as for B1
B6: VH SEQ ID NO 586 / VL SEQ ID NO 334 (antibody, IgG4, V domains shown)
VH: B1 VH
VL: B1 VL with A34H
notes: as for B1
B7: VH SEQ ID NO 586 / VL SEQ ID NO 358 (antibody, IgG4, V domains shown)
VH: B1 VH
VL: B1 VL with A34H, A51T
notes: as for B1
B8: VH SEQ ID NO 586 / VL SEQ ID NO 390 (antibody, IgG4, V domains shown)
VH: B1 VH
VL: B1 VL with I29V, Q42E
notes: as for B1
B9: VH SEQ ID NO 586 / VL SEQ ID NO 318 (antibody, IgG4, V domains shown)
VH: B1 VH
VL: B1 VL with A34H, Q42E, A51T
notes: as for B1
B10: VH SEQ ID NO 586 / VL SEQ ID NO 366 (antibody, IgG4, V domains shown)
VH: B1 VH
VL: B1 VL with I29L, Q42E
notes: as for B1
B11: VH SEQ ID NO 586 / VL SEQ ID NO 350 (antibody, IgG4, V domains shown)
VH: B1 VH
VL: B1 VL with A34H, A51T, Q100A, I106L
notes: as for B1
B12: VH SEQ ID NO 602 / VL SEQ ID NO 318 (antibody, IgG4, V domains shown)
VH: B1 VH with D16Q, A23T, Y27G, M70I, L89A
VL: B1 VL with A34H, Q42E, A51T
notes: as for B1
B13: VH SEQ ID NO 586 / VL SEQ ID NO 478 (antibody, IgG4, V domains shown)
VH: B1 VH
VL: B1 VL with I29V, A34H, N90Q
notes: as for B1
B14: VH SEQ ID NO 602 / VL SEQ ID NO 350 (antibody, IgG4, V domains shown)
VH: B1 VH with D16Q, A23T, Y27G, M70I, L89A
VL: B1 VL with A34H, A51T, Q100A, I106L
notes: as for B1
B15: VH SEQ ID NO 586 / VL SEQ ID NO 326 (antibody, IgG4, V domains shown)
VH: B1 VH
VL: B1 VL with A34H, Q42E, A51T, A84G, Q100A, I106L
notes: as for B1
B16: VH SEQ ID NO 594 / VL SEQ ID NO 470 (antibody, IgG4, V domains shown)
VH: B1 VH with G45K, Y111P
VL: B1 VL with I29V, A34H
notes: as for B1
B17: VH SEQ ID NO 594 / VL SEQ ID NO 358 (antibody, IgG4, V domains shown)
VH: B1 VH with G45K, Y111P
VL: B1 VL with A34H, A51T
notes: as for B1
B18: VH SEQ ID NO 586 / VL SEQ ID NO 382 (antibody, IgG4, V domains shown)
VH: B1 VH
VL: B1 VL with I29L, A34H, Q42E
notes: as for B1
B19: VH SEQ ID NO 586 / VL SEQ ID NO 494 (antibody, IgG4, V domains shown)
VH: B1 VH
VL: B1 VL with I29V, A34H, F83V
notes: as for B1
B20: VH SEQ ID NO 594 / VL SEQ ID NO 494 (antibody, IgG4, V domains shown)
VH: B1 VH with G45K, Y111P
VL: B1 VL with I29V, A34H, F83V
notes: as for B1
B21: VH SEQ ID NO 594 / VL SEQ ID NO 334 (antibody, IgG4, V domains shown)
VH: B1 VH with G45K, Y111P
VL: B1 VL with A34H
notes: as for B1
B22: VH SEQ ID NO 594 / VL SEQ ID NO 326 (antibody, IgG4, V domains shown)
VH: B1 VH with G45K, Y111P
VL: B1 VL with A34H, Q42E, A51T, A84G, Q100A, I106L
notes: as for B1
B23: VH SEQ ID NO 586 / VL SEQ ID NO 430 (antibody, IgG4, V domains shown)
VH: B1 VH
VL: B1 VL with I29V, A84G
notes: as for B1
B24: VH SEQ ID NO 586 / VL SEQ ID NO 454 (antibody, IgG4, V domains shown)
VH: B1 VH
VL: B1 VL with I29V, A34H, Q42E
notes: as for B1
B25: VH SEQ ID NO 602 / VL SEQ ID NO 326 (antibody, IgG4, V domains shown)
VH: B1 VH with D16Q, A23T, Y27G, M70I, L89A
VL: B1 VL with A34H, Q42E, A51T, A84G, Q100A, I106L
notes: as for B1
B26: VH SEQ ID NO 586 / VL SEQ ID NO 342 (antibody, IgG4, V domains shown)
VH: B1 VH
VL: B1 VL with A34H, A51T, T69R, Q100A, I106L
notes: as for B1
B27: VH SEQ ID NO 602 / VL SEQ ID NO 342 (antibody, IgG4, V domains shown)
VH: B1 VH with D16Q, A23T, Y27G, M70I, L89A
VL: B1 VL with A34H, A51T, T69R, Q100A, I106L
notes: as for B1
B28: VH SEQ ID NO 586 / VL SEQ ID NO 438 (antibody, IgG4, V domains shown)
VH: B1 VH
VL: B1 VL with I29V, F83V
notes: as for B1
B29: VH SEQ ID NO 594 / VL SEQ ID NO 350 (antibody, IgG4, V domains shown)
VH: B1 VH with G45K, Y111P
VL: B1 VL with A34H, A51T, Q100A, I106L
notes: as for B1
B30: VH SEQ ID NO 594 / VL SEQ ID NO 478 (antibody, IgG4, V domains shown)
VH: B1 VH with G45K, Y111P
VL: B1 VL with I29V, A34H, N90Q
notes: as for B1
B31: VH SEQ ID NO 602 / VL SEQ ID NO 358 (antibody, IgG4, V domains shown)
VH: B1 VH with D16Q, A23T, Y27G, M70I, L89A
VL: B1 VL with A34H, A51T
notes: as for B1
B32: VH SEQ ID NO 602 / VL SEQ ID NO 310 (antibody, IgG4, V domains shown)
VH: B1 VH with D16Q, A23T, Y27G, M70I, L89A
VL: B1 VL
notes: as for B1
B33: VH SEQ ID NO 586 / VL SEQ ID NO 414 (antibody, IgG4, V domains shown)
VH: B1 VH
VL: B1 VL with I29V
notes: as for B1
B34: VH SEQ ID NO 594 / VL SEQ ID NO 502 (antibody, IgG4, V domains shown)
VH: B1 VH with G45K, Y111P
VL: B1 VL with I29V, A34H, A51T
notes: as for B1
B35: VH SEQ ID NO 586 / VL SEQ ID NO 470 (antibody, IgG4, V domains shown)
VH: B1 VH
VL: B1 VL with I29V, A34H
notes: as for B1
B36: VH SEQ ID NO 586 / VL SEQ ID NO 486 (antibody, IgG4, V domains shown)
VH: B1 VH
VL: B1 VL with I29V, A34H, A84G
notes: as for B1
B37: VH SEQ ID NO 594 / VL SEQ ID NO 486 (antibody, IgG4, V domains shown)
VH: B1 VH with G45K, Y111P
VL: B1 VL with I29V, A34H, A84G
notes: as for B1
B38: VH SEQ ID NO 594 / VL SEQ ID NO 342 (antibody, IgG4, V domains shown)
VH: B1 VH with G45K, Y111P
VL: B1 VL with A34H, A51T, T69R, Q100A, I106L
notes: as for B1
B39: VH SEQ ID NO 602 / VL SEQ ID NO 334 (antibody, IgG4, V domains shown)
VH: B1 VH with D16Q, A23T, Y27G, M70I, L89A
VL: B1 VL with A34H
notes: as for B1
B40: VH SEQ ID NO 594 / VL SEQ ID NO 462 (antibody, IgG4, V domains shown)
VH: B1 VH with G45K, Y111P
VL: B1 VL with I29V, A34H, Q100A
notes: as for B1
B41: VH SEQ ID NO 586 / VL SEQ ID NO 406 (antibody, IgG4, V domains shown)
VH: B1 VH
VL: B1 VL with I29V, Q100A
notes: as for B1
B42: VH SEQ ID NO 586 / VL SEQ ID NO 502 (antibody, IgG4, V domains shown)
VH: B1 VH
VL: B1 VL with I29V, A34H, A51T
notes: as for B1

Substitutions are numbered along the chain they refer to. In names and notes the source's numbering stands.

This assay addresses T1, recombinant human activated Factor VII …. Briefly: BLI (Fortebio). A general note: Biolayer interferometry detects binding as a change in optical thickness at a sensor tip.
With B1, the Kd (usually a measure of binding affinity in units of concentration) stood at 1500 nM.

As to B2, the Kd is 32 nM.

On to B3, for which the Kd was found to be 18 nM.

Consider B4, for which the dissociation constant (Kd) turned out to be 23 nM.

B5: the Kd was found to be 140 nM.

Regarding B6, the dissociation constant Kd was 13 nM.

Consider B7, for which the dissociation constant (Kd) came to 11 nM.

With B8, the dissociation constant Kd was 38 nM.

For B9, the dissociation constant (Kd) worked out at 9.8 nM.

In the case of B10, the dissociation constant (Kd) was found to be 21 nM.

Take B11: the Kd was found to be 12 nM.

With B12, the Kd was 9 nM.

For the molecule B13, the Kd was found to be 27 nM.

B14: the Kd worked out at 10 nM.

Turning to B15, the equilibrium dissociation constant (Kd) is 9.9 nM.

Take B16: the Kd is 35 nM.

With B17, the Kd is 24 nM.

Regarding B18, the Kd was found to be 17 nM.

Consider B19, for which the Kd was determined as 17 nM.

Regarding B20, the dissociation constant Kd turned out to be 43 nM.

Take B21: the Kd was 32 nM.

With B22, the Kd was 22 nM.

As for B23, the Kd was 13 nM.

For the molecule B24, the Kd was 16 nM.

In the case of B25, the dissociation constant (Kd) is 8.8 nM.

Consider B26, for which the equilibrium dissociation constant (Kd) turned out to be 18 nM.

As to B27, the Kd came to 14 nM.

On to B28, for which the dissociation constant Kd is 23 nM.

Consider B29, for which the Kd was determined as 34 nM.

On to B30, for which the dissociation constant (Kd) was 200 nM.

As for B31, the Kd was 9.2 nM.

Regarding B32, the dissociation constant (Kd) was found to be 48 nM.

In the case of B33, the dissociation constant (Kd) worked out at 25 nM.

Regarding B34, the dissociation constant Kd is 30 nM.

For the molecule B35, the Kd amounted to 15 nM.

Regarding B36, the Kd was found to be 18 nM.

Consider B37, for which the Kd was 33 nM.

For the molecule B38, the equilibrium dissociation constant (Kd) was 120 nM.

B39: the Kd is 10 nM.

With B40, the Kd amounted to 39 nM.

For B41, the Kd worked out at 19 nM.

As to B42, the Kd is 15 nM.
